Laboratory results published in US9382311.

Target: JR-CSF gp120 N276A (HIV-1) (UniProt P20871)
Assay: cell-based or functional assay

## VRC01 (antibody)
  increase in neutralization potency: 4 fold
